The source of these data is the supplement of paper PMC10567573.

First the molecules themselves.
B1: PLK2 (parent)
chain: MELLRTITYQPAASTKMCEQALGK
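Further: lentivirally expressed fusions sorted by FACS into six bins by GFP to DsRed ratio, PSI derived from sequencing read proportions per bin multiplied by bin number.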

The variants in the data set derive from B1. The data set can be described thus: protein stability index of a GFP-peptide fusion (GPS, HEK-293T) (PSI 1-6); higher = more stable. To be noted: c terminus: a fixed tail appended.
For MELLRAITYQPAASTKMCEQALGK [T6A], the protein stability index was 1.93.
Next, MELLRRITYQPAASTKMCEQALGK [T6R]: 2.04.
Next, MELLRLITYQPAASTKMCEQALGK [T6L]: 1.69; MELLRHITYQPAASTKMCEQALGK [T6H]: 2.2; MELLRQITYQPAASTKMCEQALGK [T6Q]: 1.93.
For the variant MELLRPITYQPAASTKMCEQALGK [T6P], the protein stability index amounted to 4.1.
The result for MELLRNITYQPAASTKMCEQALGK [T6N] reads 2.81; that for MELLRKITYQPAASTKMCEQALGK [T6K], 2.19; that for MELLRDITYQPAASTKMCEQALGK [T6D], 3.2.
Next, MELLRGITYQPAASTKMCEQALGK [T6G]: 3.05; MELLRSITYQPAASTKMCEQALGK [T6S]: 1.64; MELLRVITYQPAASTKMCEQALGK [T6V]: 2.55.
Next, MELLRMITYQPAASTKMCEQALGK [T6M]: 1.73.
Take MELLRIITYQPAASTKMCEQALGK [T6I]: the protein stability index amounted to 2.65.
On to MELLRWITYQPAASTKMCEQALGK [T6W], for which the protein stability index is 1.99.
For MELLRCITYQPAASTKMCEQALGK [T6C], the protein stability index came to 1.92.
The result for MELLRFITYQPAASTKMCEQALGK [T6F] reads 1.68; that for MELLRYITYQPAASTKMCEQALGK [T6Y], 1.6; that for MELLREITYQPAASTKMCEQALGK [T6E], 3.17.
MELLRTITYQPSASTKMCEQALGK [A12S]: the protein stability index was 1.56.
In the case of MELLRTITYQPRASTKMCEQALGK [A12R], the protein stability index came to 2.34.
The result for MELLRTITYQPTASTKMCEQALGK [A12T] reads 2.81; that for MELLRTITYQPHASTKMCEQALGK [A12H], 2.41.
Next, MELLRTITYQPEASTKMCEQALGK [A12E]: 2.58.
The result for MELLRTITYQPWASTKMCEQALGK [A12W] reads 1.79; that for MELLRTITYQPYASTKMCEQALGK [A12Y], 2.21.
As to MELLRTITYQPIASTKMCEQALGK [A12I], the protein stability index is 2.35.
The result for MELLRTITYQPVASTKMCEQALGK [A12V] reads 2.4.
As to MELLRTITYQPQASTKMCEQALGK [A12Q], the protein stability index is 2.03.
The result for MELLRTITYQPNASTKMCEQALGK [A12N] reads 2.8.
Regarding MELLRTITYQPPASTKMCEQALGK [A12P], the protein stability index turned out to be 2.18.
Next, MELLRTITYQPFASTKMCEQALGK [A12F]: 2.97.
The result for MELLRTITYQPGASTKMCEQALGK [A12G] reads 2.32.
Next, MELLRTITYQPKASTKMCEQALGK [A12K]: 2.03; MELLRTITYQPLASTKMCEQALGK [A12L]: 2.57; MELLRTITYQPCASTKMCEQALGK [A12C]: 2.82.
Turning to MELLRTITYQPDASTKMCEQALGK [A12D], the protein stability index was found to be 1.82.
Regarding MELLRTITYQPMASTKMCEQALGK [A12M], the protein stability index came to 1.47.
The result for MELLRTITYVPAASTKMCEQALGK [Q10V] reads 4.15; that for MELLRTITYNPAASTKMCEQALGK [Q10N], 3.54; that for MELLRTITYDPAASTKMCEQALGK [Q10D], 2.11.
Next, MELLRTITYCPAASTKMCEQALGK [Q10C]: 1.28; MELLRTITYLPAASTKMCEQALGK [Q10L]: 2.49; MELLRTITYSPAASTKMCEQALGK [Q10S]: 2.54.
The result for MELLRTITYMPAASTKMCEQALGK [Q10M] reads 1.99.
Take MELLRTITYYPAASTKMCEQALGK [Q10Y]: the protein stability index came out at 3.24.
Next, MELLRTITYIPAASTKMCEQALGK [Q10I]: 2.81; MELLRTITYGPAASTKMCEQALGK [Q10G]: 3.21.
As to MELLRTITYRPAASTKMCEQALGK [Q10R], the protein stability index is 2.97.
Next, MELLRTITYWPAASTKMCEQALGK [Q10W]: 2.6; MELLRTITYAPAASTKMCEQALGK [Q10A]: 2.79; MELLRTITYEPAASTKMCEQALGK [Q10E]: 2.5.
Next, MELLRTITYPPAASTKMCEQALGK [Q10P]: 2.83.
The result for MELLRTITYTPAASTKMCEQALGK [Q10T] reads 2.12; that for MELLRTITYKPAASTKMCEQALGK [Q10K], 2.78; that for MELLRTITYHPAASTKMCEQALGK [Q10H], 1.81.
MELLRTIPYQPAASTKMCEQALGK [T8P]: the protein stability index stood at 1.97.
With MELLRTIAYQPAASTKMCEQALGK [T8A], the protein stability index came out at 2.94.
As for MELLRTISYQPAASTKMCEQALGK [T8S], the protein stability index came to 2.21.
As for MELLRTIVYQPAASTKMCEQALGK [T8V], the protein stability index was 2.49.
Take MELLRTIKYQPAASTKMCEQALGK [T8K]: the protein stability index is 2.25.
For the variant MELLRTIRYQPAASTKMCEQALGK [T8R], the protein stability index was determined as 2.5.
Next, MELLRTIQYQPAASTKMCEQALGK [T8Q]: 1.94.
In the case of MELLRTIEYQPAASTKMCEQALGK [T8E], the protein stability index amounted to 1.78.
Consider MELLRTIIYQPAASTKMCEQALGK [T8I], for which the protein stability index was determined as 3.71.
Next, MELLRTIMYQPAASTKMCEQALGK [T8M]: 1.96; MELLRTIGYQPAASTKMCEQALGK [T8G]: 2.44.
The result for MELLRTIFYQPAASTKMCEQALGK [T8F] reads 2.17.
The result for MELLRTIWYQPAASTKMCEQALGK [T8W] reads 2.55; that for MELLRTILYQPAASTKMCEQALGK [T8L], 2.91; that for MELLRTIDYQPAASTKMCEQALGK [T8D], 2.01.
As to MELLRTIYYQPAASTKMCEQALGK [T8Y], the protein stability index amounted to 2.93.
The result for MELLRTIHYQPAASTKMCEQALGK [T8H] reads 2.03; that for MELLRTICYQPAASTKMCEQALGK [T8C], 2.32.
The result for MELLRTINYQPAASTKMCEQALGK [T8N] reads 2.68; that for MELLRTITQQPAASTKMCEQALGK [Y9Q], 2.01.
Next, MELLRTITDQPAASTKMCEQALGK [Y9D]: 2.
For MELLRTITIQPAASTKMCEQALGK [Y9I], the protein stability index was found to be 2.34.
The result for MELLRTITSQPAASTKMCEQALGK [Y9S] reads 3.53; that for MELLRTITVQPAASTKMCEQALGK [Y9V], 2.11.
Next, MELLRTITKQPAASTKMCEQALGK [Y9K]: 1.64; MELLRTITEQPAASTKMCEQALGK [Y9E]: 2.05.
The result for MELLRTITAQPAASTKMCEQALGK [Y9A] reads 2.52.
With MELLRTITGQPAASTKMCEQALGK [Y9G], the protein stability index was 2.46.
Take MELLRTITNQPAASTKMCEQALGK [Y9N]: the protein stability index is 2.16.
Next, MELLRTITLQPAASTKMCEQALGK [Y9L]: 1.73; MELLRTITWQPAASTKMCEQALGK [Y9W]: 1.45.
The result for MELLRTITHQPAASTKMCEQALGK [Y9H] reads 2.1; that for MELLRTITTQPAASTKMCEQALGK [Y9T], 2.29; that for MELLRTITMQPAASTKMCEQALGK [Y9M], 1.89.
The result for MELLRTITCQPAASTKMCEQALGK [Y9C] reads 2.38; that for MELLRTITRQPAASTKMCEQALGK [Y9R], 2.19; that for MELLRTITPQPAASTKMCEQALGK [Y9P], 2.04.
Take MELLRTITFQPAASTKMCEQALGK [Y9F]: the protein stability index was determined as 2.05.
